{"source": "patent US20200405873A1", "about": "“PYRROLOBENZODIAZEPINE-ANTIBODY CONJUGATES” (MEDIMMUNE LIMITED, priority 2015, published 2020)", "target": "T1, human CD25 (Homo sapiens, UniProt P01589)", "T1 sequence (P01589 22-272)": "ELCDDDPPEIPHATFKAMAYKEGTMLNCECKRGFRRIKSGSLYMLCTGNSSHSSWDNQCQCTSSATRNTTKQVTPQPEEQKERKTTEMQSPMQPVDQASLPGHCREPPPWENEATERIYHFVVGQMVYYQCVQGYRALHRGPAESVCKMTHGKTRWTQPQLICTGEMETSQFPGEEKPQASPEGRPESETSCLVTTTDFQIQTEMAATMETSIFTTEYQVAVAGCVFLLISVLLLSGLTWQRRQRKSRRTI", "assay": "Binding of ADCT-301 to human CD25", "details": "stated in words only", "data": [{"substance": "ADCT-301: ADC of human anti-CD25 monoclonal antibody HuMax-TAC conjugated through a cleavable linker to PBD dimer cytotoxin SG3199", "values": [{"measurement": "affinity to human CD25", "result": "picomolar"}]}]}
